Test results from the DeepSol protein solubility set.

Assay: soluble on expression in E. coli; label from the status in PepcDB or PDB records

Row | Sequence | soluble on expression in E. coli
1 | MSLGREKGLSTFLFLLLFSISLHAQRQDILLNNNWNFRFSHQVQGDTRRVDLPHTWNAQDALAGKIDYKRGIGNYEKALYIRPEWKGKRLFLRFDGVNSIADVFINRKHIGEHRGGYGAFIFEITDLVKYGEKNSVLVRANNGEQLDIMPLVGDFNFYGGIYRDVHLLITDETCISPLDYASPGVYLVQEVVSPQEAKVCAKVNLSNRAADGTAELQVLVTDGTKVICKESRNVSLKQGADILEQLPLLIQKPRLWNGCEDPFMYQVSISLHKDGKQIDSVTQPLGLRYYHTDPDKGFFLNGKHLPLHGVCRHQDRAEVGNALRPQHHEEDVALMREMGVNAIRLAHYPQATYMYDLMDKHGIVTWAEIPFVGPGGYADKGFVDQASFRENGKQQLIELIRQHYNHPSICFWGLFNELKEVGDNPVEYVKELNALAKQEDPTRPTTSASNQDGNLNFITENIAWNRYDGWYGSTPKTLATFLDRTHKKHPELRIGISEYGAGASIYHQQDSLKQPSASGWWHPENWQTYYHMENWKIIAERPFVWGTFVWNMFDFGAAHRTEGDRPGINDKGLVTFDRKVRKDAFYFYKANWNKQEPMIYLAEKRCRLRYQPEQTFMAFTTAPEAELFVNGVSCGKQKADTYSTVVWKNVKLTSGENIIRVTTPGKKPLTDEVTVEYKEDREGHHHHHH | not soluble
2 | MSLGRKIKKETMIFPRYHQLRAVRELEDAARTEGPGHNYLVEHSAGSGKSNTIGWLAHRLASLHNESDHKVFDSVIVITDRRVLDRQLQDTIYQFEHRQGVVQKIDEDSRQLAEALTNSVPIIISTLQKFPFVARQLARMAEERREGADGILPTRRCAVIIDEAHSSQSGETATDLKEVLGGHVLREEAARYAVDEGVDNLDELYRSMAKRGRQTNLSFFAFTATPKHKTLAVFGRDEAGKAGQPFHRYTMSQAIEEGFIMDVLKNYTTYATYYKLVKASEDDPNVERKQAAKALARFMRLHPYNIAQKTEVMVEHFNAVTRHKVGGKAKAMVVTGSRLEAVRYKLAFDAYIREKGYSWIKTLVAFSGEVVDDELPGKTWTEVGMNGGIKEGVLPEKFDSSEYQVLLVAEKYQTGYDQPLLHTMYVDKRLAGIQAVQTLSRLNRMHPLKEDTFVLDFVNDRQEIKEAFKQYHEGAEMGEEADPNQMYAIKAELDASGIYLLEEMQRFIGIYFKPKQRQSPADHQAMNAALDPAVDRFRAVQEEDEEQAELWRGKLSAFRNLYAFLSQVAPYQDSDLERLYTFLRFLSPKLPKRTTGQRYSFDDEVRLEYYRLQKISEGSISLRDGKAELLDGPGEVGSGARHDEDVPLSSLIDVINERFGTDFTDADQLFFDQIIEAAMEDGSLLEAAAVNPEEKFALLFAGLLETLFIERMEQNEDIFARFMNERDFQSLVSKWISGKVYARLREGHHHHHH | not soluble
3 | MSLGRKQQYGTLASIAAKLGISRTTVSNAYNRPEQLSAELRQRILDTAEDMGYLGPDPVARSLRTRRAGAIGVLLTEDLTYAFEDMASVDFLAGVAQAAGDTQLTLIPASPASSVDHVSAQQLVNNAAVDGVVIYSVAKGDPHIDAIRARGLPAVIADQPAREEGMPFIAPNNRKAIAPAAQALIDAGHRKIGILSIRLDRANNDGEVTRERLENAQYQVQRDRVRGAMEVFIEAGIDPGTVPIMECWINNRQHNFEVAKELLETHPDLTAVLCTVDALAFGVLEYLKSVGKSAPADLSLTGFDGTHMALARDLTTVIQPNKLKGFKAGETLLKMIDKEYVEPEVELETSFHPGSTVAEGHHHHHH | soluble
4 | MSLGRNPPPAIGQFWHVTDLHLDPTYHITDDHTKVCASSKGANASNPGPFGDVLCDSPYQLILSAFDFIKNSGQEASFMIWTGDSPPHVPVPELSTDTVINVITNMTTTIQSLFPNLQVFPALGNHDYWPQDQLPVVTSKVYNAVANLWKPWLDEEAISTLRKGGFYSQKVTTNPNLRIISLNTNLYYGPNIMTLNKTDPANQFEWLESTLNNSQQNKEKVYIIAHVPVGYLPSSQNITAMREYYNEKLIDIFQKYSDVIAGQFYGHTHRDSIMVLSDKKGSPVNSLFVAPAVTPVKSVLEKQTNNPGIRLFQYDPRDYKLLDMLQYYLNLTEANLKGESIWKLEYILTQTYDIEDLQPESLYGLAKQFTILDSKQFIKYYNYFFVSYDSSVTCDKTCKAFQICAIMNLDNISYADCLKQLYIKHNYEGHHHHHH | soluble
5 | MSLGSERWITVQLVGEIMGTSFERGISQYPNVNDEVHLVTESDLEAIHGVEEQGQVVVGRLASADGIPVKLDLDKMVTRHSAVLGSTGSGKSTTVASLLRSIVSGADGSDAGFPSSRILMLDIHGEYSHALSDVAKVFRISPEANQTQLHIPFWALDPNELLCFLMGRLDDKPLTAILDKVYEYKHDQAVAHPRAGLNVTSMTSDTPVPFSLKKLWLELLEPEVKTWEDTARSQPALLEAGNADNVTPPQYKPHGAGATPPFINQIGVLGIRRPLDQLRSRLLDKKYDFLLHPGDWEPDLDGNVTKDLDALLEEWLGHDKPITILDLSGVPSLVLEQLIGAILRILYEALFWGRDRSEGHHHHHH | soluble
6 | MSLGSSDLPAHALVGYLHASFANGSGYTRMADVPDSWDVIDLAFGEPTSVTSGDIRFERCPVAECPNVESDAEFKAAIKAKQAAGKKVLISIGGQNGQVQLTSTAARDKFVSSVSAIIDEYGLDGLDIDFEGHSLSLNADDTDFKNPKTPVIVNLVSAVKTLKAKYGDGFVLTMAPETFFVQLGYQYYGTGKWGGQDPRAGAYLPVIHALRDDLTLLHVQDYNSGSIMGLDNQYHSMGGADFHIAMTDMLLTGFPVAGDANNVFPPLRPDQVAIGMPASTQAGNGHVSPAEVTKALNCLTKKTDCGSYATHGTWPDLRGLMTWSINWDRYSNWEFQKNFDAYFGEGHHHHHH | soluble
7 | MSLGSVNRVYLARLSRMSVLGPLGESFGRVRDVVISISIVRQQPRVLGLVVDLATRRKIFIPILRVAAIEPHAVTLSTGNVSLHRFEQRPGEALALGQVLDTLVKVNDPALPELAGVDVVVTDLGVEQTRSRDWMVTRVAVRTQRRLRRRCPVHVVDWHNVAGLTPSALAMPGQDVAQLLDQFEGWKAVDVADAIRGLPPKRRHEVFKALHDKRLADVLQELPELDQAEVLSQLGTERAADVLEEMDPDDAADLLAVLNPTEAELLLTRMDPGDSGQVRRLLTHSPDTAGGLMTSDPVVLTPDTSIAEALARVRDPDLTPALASMVFVARPPTATPTGHYLGCVHLQRLLRDPPAELVGGVVDTDLLTLTPETPLAAVTRYFAAYNLVCGPVVDDENHLLGAVTVDDLLDHLLPHDWRVDMPELDPSGAPDRPGGPREGHHHHHH | soluble
8 | MSLGYHTLEVTVGNEAETATVISAPEKIELLDDMKNGSLWGWMSQLYSIRSKGSWGVGDFEDLKTMLVEAKKKTGSDFMLINPMHAAEPVPPLTPSPYLPISRRFINFSYIRPESMPEYLTLSHEDRAEVDALHEQVESLNDDARLIDRDAMWRVKKHALWVIYKAGRTKARQAEFDRYLAECGDEIESYATWCLCYDKWGAPSDDADNWVRKYNRDSEEVAQLREKFPDTLEFYRWLEWVATDQLHAAQQAARKAGMKIGIVADMAVGVHPAGSDVWWNPERFAKGATVGAPPDMFNQQGQDWSQPPLNPIALEQTGFKVYRDMVHDMFANAGAVRIDHILGLFRLWWIPEGKPATDGTYVHYDSDVMLGILALEASRAGGVVVGEDLGVVPAYVSKSLSEHGILGCAVEWFEQMDGVFRTPKDWRPYALASVNTHDMPPAAGYLEYGHVKLREQLGLLSGPVEEFQKSATAEHNAMLNMLVEEGYLDKAALDDEAANENEIVDALYRGLKGSPCKLMAASIVDAVGEKRTQNQPGTNNEYPNWRIPLADGEGNVVPLEKLFDEPRLQEITAIMREGHHHHHH | not soluble
9 | MSLHASAIESIETIIVDLPTIRPHKLAMHTMQNQTLVLIRLRCADGIEGLGESTTIGGLAYGNESPDSIKTNIDRFVAPLLIGQDASNINAAMLRLEQSIRGNTFAKSGIESALLDAQGKRLGLPVSELLGGRVRDALPVAWTLASGDTAKDIAEAQKMLDLRRHRIFKLKIGAGEVDRDLAHVIAIKKALGDSASVRVDVNQAWDEAVALRACRILGGNGIDLIEQPISRNNRAGMVRLNASSPAPIMADESIECVEDAFNLAREGAASVFALKIAKNGGPRATLRTAAIAEAAGIGLYGGTMLEGGIGTLASAHAFLTLNKLSWDTELFGPLLLTEDILAEPPVYRDFHLHVSKAPGLGLSLDEERLAFFRRDKTTPVLHHTEGHHHHHH | soluble
10 | MSLHDLLLRNVRPMAGEACDIMIRNGKITGFGKFDAEPGLPVEDGKGAIAVPGLIDAHTHLDKTTWGMPWHVNNRAAILRERIDFERENRVQIGIDPHRQSMRHAIGLAANGGTHIRSHVDIDPTHGLKLVEGIWETREKLDGIIDIEVVAFPQSGVMVMPGTVELLDEALKQGCEVLGGIDPCGIDRDPKGQLDILFQLATKHGVPIDIHLHEAADLGAFTMELIFERIRANGMQGNVAISHAFALGMNDYLRVGRLIDEIARLDVAILTTGAPSASVPSIMRLKEAGVRVGGGCDGIRDTWGPWGQPDMLDRAKIIGMKNGLRSDVELAHVLHVVSRGGADVMGIEDYGMEIGCAADFTLLTGETLAHAVVDITPRPLVVKGGRVTARNGKAIVEAPEGHHHHHH | not soluble
11 | MSLHINQLLQHANSDLPLLQANFGLERESLRINKTNHRLAQTPHPTALGSRQFHPYIQTDYSESQMELITPVAHSSKEVLRFLGAITDVAERSIDQNQYLWPLSMPPQITEDEIEIAQLEDDFEFSYRQYLDKKYGKILQSISGIHYNMELGADLMNELFELSGYQSFIDFKNDLYLKVAQNFLNYRWFLTYLYGASPLAEKGFLNEELSQTVRSIRNSHLGYVNTDDIKVPFDSLENYISSIEHYVKSGALSAEKEFYSAVRLRGSKHNRDYLTKGITYLEFRCFDLNPFNNRGITQETIDSVHLFILAMLWLDTPKKLNQALDKAQKLNDKIALSHPLEKLPKENSASLIIEAMEALIKHFKLPSYYDDLLIAIKKQVENPKLTLSGRLFEHIKHASLEHFGQKKGQDYHNYAWQNYYALKGYENMELSTQMLLFDTIQKGIHFEILDENDQFLKLWHNDHIEYVKNGNMTSKDNYVIPLAMANKVVTKKILRENGYPVPAGAEFDNKDEALRYYSQIKNKPIVVKPKTTNFGLGISIFETAASHNDYEKALDIAFIEDYSVLVEEFIPGTEYRFFILDGKCEAVLLRVAANVVGDGHSTVRQLVAQKNRDPLRGREHRSPLEIIDLGDIELLMLQQEGYTLEDILPKGKKVNLRGNSNISTGGDSIDVTETMDPSYKQLAANMATAMGAWVCGVDLIIPDTNLKASKGKPNCTCIELNFNPSMYMHTYCYQGPGQVITGKILAKLFPEISTKIEGHHHHHH | soluble
12 | MSLHISVMGELDSKADVDRLLESIDENCDCEIHLTFLDANVVPREIVEKIVKLKEHNKCKIFVLKAYLYSYFLSLGISCFLVKKKSILNKDFESKEKLSSQTFEPEKVEKFLWDIYDKYGFDFTEYRKDSIIRRIKISMLRYCMTNFDEFSHLALTDQDVFEQLFLDFSINTTNFFRDPEVFMFLREKVLLFLDSYSHIRIWCVGCSNGKEPYSLAIILKELGMLHKVQIYATDINPYVIEEAKNGLYSVSTINTDIANYKKSGGSKNFTDYFEVNGNYMKVKDDFKDNILFFQHSVIEKGILNEFQMILCRNVMIYFDIPLQKKVLRHFYNSLDSGGFLVMGKSEGMLLNNGYEYFADYNEKYSVYRRKEGHHHHHH | soluble
13 | MSLHLSNVILHQLCKNDQDELVVKLRPASLENDASTENLVAELHRVFHSKAGKGFGSFQSDSEFQFWLQEMRKGERDFYDFSQISANRLKEELIKYPFADEGILVFAEYQSLATDYLFIGILPMNQSLKVTEGLDISATDYLDITKMDIAARIDLSSYETDKESNRYLQYIKGRVGRKVADFFLDFLQADIGLDTKQQNLVLMQAVDDFCADSKLEKQEVNEYKKQVYNYCNEQIKSGEEVQISELSGELPPSQDGTSFMDFTKEQGYELEESFPGDRSTVRKLTKYVGAGGGLNISFDSLLLGERIFYDPETDTLTIKGTLEHHHHHH | not soluble
